Assay: protease stability score; higher = more stable; yeast display proteolysis, trypsin and chymotrypsin;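 note: log10 excess protease needed over predicted unfolded state with 0 meaning unfolded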

First: DETEQAKKLLNDIENIFRTGDPKQLEKLAPPDVDVRVGDKEVHGKEQVVEELQRRQESFDHIEFNLHRVSVSGDKYRLDYEVRFDHNGRTETYRVVVVYVNNNGRLQDKSMTIK
Second: DETETMEQMIQDLHRALQQGDHETVKELIPPDAEMQIGDKTWHGKEQVARHLVEHAQTADHIDIDIKSIKIEGNKLVVNLKVVYDRNGHRETQTYELMVDVNNGEFRIVEQRQP
The protease stability score of the first is lower: 0.684 for the first, 0.921 for the second.

Going from “DETEVAHRFLNQERRNWKTGNRQSFENMFRDNVRAQYGDKTVTGREDMKRWLDRILKEVDHVRIEIKDLKREPGRVSLDVVVVFEHNGHKDKKRYVIDAVASGDKMIIDQVQDK” to “DETEWREFAEEFIRLFQQGDEDRLRKLIDKNAKIRYGDREVDGRDSIAKQIRDNREQIDRIDLVDMKVRGEHITITIDVDHNGQRRRIVIHINVHNGHIKNVEVDSG”, the protease stability score rises from 0.165 to 1.02.

Going from “DETHDAHRKAEEIITALRTGDPKQAESLVPENVKIDVGDKTIHGKEQYSKEFKKFTDRVDKVEVRIKHVHVQGDKIKIRMEARENVDGQDKRYQFVLIFDRHNGKDQAVSIKVD” to “DETHKAKEMLKEFHTAVSKGDEDRYSNLLDENVHITYGDKTVHGREEAVKLFTELQERADHVDVDVVSVDVKGETVKARIRINFVYDGREDRHEFTLIAIVDNGRFVIKSIIQK”, the protease stability score rises from 1.02 to 1.22.

Compared with “DETHLKLLEHFFKQWMTGNQQELRSLADPNVEYVYGEHRVRGREQMAKDLVRELHEMTISMRSVTSDIRGDQAVVTVNFQQDKNGEPDEVNVKMRAEVHNGRIKSMNAKFHQ”, “DETIHDQAQRFFRDVQTGDEENIHKYFDPNARFVVGDKDLHGMSEVAEDLARKWNEWRVDVRDYRIKVHNGRIEVHIDARFDHDGQPEDRSEVVVYTMKNGQVQMVEFHKQG” is higher in protease stability score: -0.287 for the first, 0.464 for the second.

Compared with “DETKAAQVAAELISAIVHGDTDRALELADKDVRADIGENKVHGREEMHKMVEQYDKSVDHASVKTYKVSGNSVKVNVEVTHNGRKRTVDFTAEAHNGKAKQVTAEVK”, “DETKDTEAAERYLENFKTGDPKKLANQFDKNAKVVVGDNEIHGREELQRNNESFVKRVDHIDLQTVDMRGDKFRYQVVIKINGNSVIVNYSIVMHNGKFERNHVDPKDMDRLKQ” is higher in protease stability score: -0.768 for the first, 0.363 for the second.

Compared with “DETKLMTELAEKLNRVIQKNNPDEARKLMDPNARQQVGDTRYHGNEQLAEYMKDMHERYDHVEVDVKDVNVSGDHATLEAKVHFRHNGKNTTINQNIVATIHNGKVVLKQVTSK”, “DETKQAERVAETEKRIWERGDPDKLNEMFDPNVRIDVGDKEVNGREKLKEYIERILTQVDHVRLNFTSISVHNGSVELKYTLVREDNGRRRRDTFVIHMELHNGQARVTSVRRG” is lower in protease stability score: 0.465 for the first, 0.405 for the second.

Going from “DETKQQELIHRLLEALETGNPDEYIKNLDKDVRVVVGDTEVHGREDLKKLFERLTHQIDHQHIKDYKVSNGQADVKLVVVNNGQERRLTIKIVVRNGHVKEVVWNDR” to “DETKVKKLAETVIKILFSGDKKTAKDLLKPNVKFEALDVELHGPDQVRKYYDKVKKHGAEMHVQRNEVKGNTAEVEYVLKVGGTEIKVKATLYVKDEKVDKAEVNNSEEYKKYVQKG”, the protease stability score falls from 1.77 to -0.018.

Going from “DETKVKKLVVHVAQVLMSGQVDEAQKFLNPDVEFHAGNVTLHGPEQVLEYYKKIQKRGVEFHVKEAEVHGNTVEVKYDVKFDGTEQTLKFKAEVKDTVVEKAELEIDEDYVRAVQKG” to “DETLFELIQRLIEAYKHGNPDELKKQADPNARVKVGDKELHGMEEIAKELVTQRKQQRLSYLSINNDDDPNHARVRFNVEVERNGQPRTKRFELRAETHNGRLISMEVQSRR”, the protease stability score falls from 1.11 to 0.232.

Going from “DETNERVARTMLEVRQHNNPDDLRKMLDPNVKVVIGDKEVHGREDYINKFEERVKHIRVDVKVDHIDSQGNRLDIDVTFTMNVNGQPVKDRMRFVIQITNGKIEEVDVSVPEEELKKQEK” to “DETNKEQFDRLLKHQKTGNPQEVVKNADPNVKMRIGNKTWHGRENINQDVERRRRKMRIDINVKSVDSHGEELRIDARVQYNINGKPLEDDVVIIAEVHNGKFKHIEVRIPERMQKKLER”, the protease stability score falls from 0.909 to 0.637.

Going from “DETNKKAVEDYIKALETGDDEMAKRLMDKNATVEIGDKEVTGREEIHEQFKRDVKEIRVRIDRVHVKDQGDKVNLRAREKQTVNGHPISFEFQVEFHAHNGKIKHVEWQIDKDQLRKLKG” to “DETNLKKVLDVLKDNDEKKLEELADEDAKNDIGNFDYRGRRQFEEAMRHRRKMIDSLEVKSVRADGDKAEIDMSAVINGREVKASQMVKVHNGRIKSISVRFTDPDKEREADKKAQ”, the protease stability score falls from 0.119 to 0.023.

Going from “DETNRKQASRVLENLQTGDPRQVSELVDPNARVTVGDKQVTGRENIMQRVKHELDQSRIQIDHYEIDDKGESADLRMTQQVDHNGNPTRTKYQVEVEAENGKIKEITIEERS” to “DETNVKNAEEWLRALQDNNSEQLRKLMDKDVRVEIGDDVIKGREDVVTNLIRKARELRFRIKVDKIEDDNGKVVVHAEATFTHNGKPDRVEVELVFSLDNGKIKEVVVKTDG”, the protease stability score rises from -0.271 to 1.69.

First: DETNVRSVERFVHALKQGDPDKLHRNADPNVKVQIGDKVIHGREELSKDQKRRNKSMRLSYKDYRNEDTNGNVIVHLTFTSERDGQPRENEYRAHITLNNGKIREVDMKSDG
Second: DETQDKKAERLVKKNNWDEMVRNADKDVRVQVGDYEVHGREDMKRLAKKFKDRYDHVKVDDVQVHNGRVNADMKATVDGHTIRFILQADIHNGRFKYMTLQARSSEQEKHLKRLFQ
The protease stability score of the first is lower: -0.288 for the first, 0.475 for the second.

Going from “DETQLRIASEFEEAVRRGNEEQAKRNVDPNARVRVGDTEVHGNEQIAKKIRQEVEHARVSVKSVTNHTDENRVVIDVEFEATHNGEPTSKKYQVNIEIRNGKIKEINYHDSK” to “DETQMDHIRRFFEAVVNGDPDELERQADPNVKFSVGNQQWHGENQLKKEAEKRRKEIRINIKSMEVRVHGDSVVVHIRQEVEVNGQPEDITFTMTVEVSNGKIKSVDVQMDQQEERNVQR”, the protease stability score falls from -0.157 to -0.342.

First: DETQMKHLAEEFNKAQKRGNEEKLRELIDKDVTMKVGDKEVHGRERVADKMRKMIERADSISIRDVKSQGDRAEIDMEYRVDGRHRVVIVILRFSNGRIVYAEFQSS
Second: DETQRAEEFFKRMQKLAHTNNFEHLANMADPNANFRVGDKTFHGRRDMIRQQKQIRERVDHVEYDVRRIDVHGNELDIKLEVNYDVNGKKDTRTVHYNAENNNGDVVISRVEYK
The protease stability score of the first is higher: 1.08 for the first, 0.127 for the second.

First: DETREAQEIAKRIHKAVEENDEKQLEDQMPPDASVEVGDKTIHGRSRIARELWEEVETADHVNVSITSIRVDGDKVHVDMRYQFDDNGDDDVKHQKAQYVRNGDHFVLKNVHRK
Second: DETRMRELDKVFHHNDPDKMRENLDENVRMVVGDKSFTGRHQVQDWLKIFHDQVDHFEVESLTKEGNKIDVVYRAVVNGQEFRMRVDITVHNGRIKMIKVDFTNEDETRQFLEHIK
The protease stability score of the first is lower: -0.225 for the first, 1.55 for the second.

First: DETRQAKDMVSELRKALKQGDEDKAMKLADPNVRLDVGEKDLHGRERLKEWVTEIRDKYDRVDLKVTHVHVRGNKIVVHAEVVMRRNGHQKTMTLTIVVRLQGDHLHIVEITQR
Second: DETTEASKLLHRINTAWQTNDPDQFQEQFDENARAKVGDKTVHGRKNMNELLKRLVENVDHIDVQVVDFRVDGDKLVIYFRVQNEHNGKHEHDQYAIWAVDRNGHVRAIEWHES
The protease stability score of the first is higher: 0.803 for the first, 0.272 for the second.

First: DETTVHHILKNFNEAMEQGDPKQAMRLADKDVKLDVGDKRVSGSETLDTLVKNIRDQADTISVKTVHVDGDTAHAVLVIRINGKDVEFNVRIEVHNGRIKSLEMDPDKLKSAMK
Second: DETVEELIKRFMRAIKNNNPDELVRNADKDAKYDIGDKTIHGREQLHDHVEHLRDEMQIDYEVENLKVHNGRADVDVKNNNNHNGRPETKRLRLDVVVHNGKIKDVKFQDTR
The protease stability score of the first is higher: 0.852 for the first, 0.243 for the second.

Going from “DETVLQVVHRFLKAVETGDPKEVRKNADPNAKAVVGDQTVSGRETLAHQIEREREEMSFEWEKVTNDVQGEHVDVDFTMRMTHNGRPDRSRVRIKYQVHNGKLTYVRVTDDK” to “DEVEKAKNLFDRLVRAFKNNNWKQFSDLADEDVRYVVGDKEWHGREQADEMFREMVEEIDHYDIHVKDIKFHNGKVDLKATASFSVNGKTHRFTVEWRVQMHNGHLRVKQVILK”, the protease stability score rises from -0.149 to 1.25.

Compared with “DEVTRAEELLHEIQEAFRTGDEDQARRLADENVQIHVGDKFVRGRRDYVKRLKDEVDRVDHMEVHIKSVDVHGDKATMDYRVRVQFDGQSKERDVVMYAKISNGQLKVTSLTEK”, “DHDAAHQFKKMLDALRTNDEEHARRMADPNAKFQIGDKTYKGMDTFIRQLVREAREIKIHIDDIKVHDKGDKAVLNVNVKFSKNGEPDSRVLNFEFRAHNGHLKEIVVRDDK” is higher in protease stability score: 0.012 for the first, 0.757 for the second.

Compared with “DHDAKKRIHQLWHALQTGNPDEVVKQVDKDVKVRVGEKDIHGRDQVREDVEREQKDMRVEYKSIRVEMNGDKARVEVHYQHERDGQPRTHRADYEIKWQNGKVKEMRASQKP”, “DHDALERFQEFLENLKSGNPHDLHNMLDKNASLQVGDKTVTGRDQIVDHWRRQREEWEVTYRSVDLKVSGDTVKADFDFQVDINGQPNRVSRQAHVKISNGKLKTLQYRVSEDVKRNIEG” is lower in protease stability score: -0.244 for the first, -0.254 for the second.

Compared with “DHDALKRASQFLKAMEQGNEREAVRLVDENARVRYGDKQIHGNKQIRDWVRKMHEQARIRIEVTRVQATGDTVTVTAKVDVDVNGKPQTHDMVFRARVHNGHIKSAEFHFDEEFEKRMNS”, “DHDALRHATEILRARKTGDDKRIRELVDPNAHVVIGDKSLHGREQIVKFVTKENEEMSIQYRHVSTETRNGRVDIRMDADMRKNGTPDRVRQEMKAEFHNGRLQRMSVHDDK” is lower in protease stability score: 1.32 for the first, -0.331 for the second.

First: DHDAVRQARELYKVWQTGDPDKVRNMLDPNVRFRIGDKEIRGRESFAEELITQIKQSHVEVRHYSANANGNNVKARANVVIHVNGRPHEFSFIFRARVENGKFKQISVQVDDDLLRKLES
Second: DHDIRELFKRLVDAISTNDPQTMNNNMDKDVEARVGDQDYKGRENMAHELVKTREKIRLEMHLNSLNNEGDYVRVEVEQVLEDNGQPDRSVMDAEWRADNGRVQEYHVDEKP
The protease stability score of the first is higher: 0.548 for the first, -0.146 for the second.

First: DHDKQEFWNHLVEIFKSGNEDDWRKNFDPNAKWHIGDKRVHGREEAVEDFRRRREELRQNIESFTVDARGDKVTVHQVFVVEINGHPRRMSVNIRAKVHNGQIKEMDVRLSDEDKKKEKG
Second: DHDLLTKIKTILELIKTGNFEEVRKNFDPNVDVHVGDKTIHGRERWAKELDKEVRELRWDIKIKRVKDRGDRAHFDMEATFEVNGRPANFRANMVVHMHNGRVKHMNIKIPEEDLKRQKS
The protease stability score of the first is lower: 0.478 for the first, 0.823 for the second.

Compared with “DHDLNQQAQQWVRNFNNGDEDKLQDYADPNVRFQIGDEQVHGREEYKSRVKKKRKHARFRIRVREIDAQGEHVHVKADIIQNINGRPMDDHVIFHFEVRNGKLKSLKLRVDPEKQRELEK”, “DHDLQKTWKDQAAEALQTGDPREFEKMVDENVNVIYGDKTYHGRKQASNLAQRLQKQIDHIRLHSVSIRGDEVNVDLTVNVNGTEMRYHMTARVHNGKVKELKFDPDFVRKAQK” is lower in protease stability score: 0.417 for the first, 0.174 for the second.

Going from “DHDLVKHLESFIKNLQDGDDDKLAKYADPNAHIEVGDKVVSGRKQLQEEVRRQRKRMRISLDVKDVKAHNGQADVTFDQRVEVNGRPWQNRYTVIFFLHNGTLREARFDIPEREQRKLES” to “DHDQRRQAKEMVHAMTKGDEDRLRELLDENAKADVGDSKVHGRTQFLRELRTTMEQSQLRLDSFDVKVKDGRVRMRFSFVEDHNGRPNHKNAELQLRLDNGKVQEVRQRDDG”, the protease stability score rises from 0.189 to 0.539.

Source: the NTF2 design screens of Basanta et al. (2020)
